Test results taken from US6555107.

Target: human CXCR4 (human) (UniProt P61073)
Test: cell-based or functional assay

Chain of UniProt P61073 (P61073 whole entry): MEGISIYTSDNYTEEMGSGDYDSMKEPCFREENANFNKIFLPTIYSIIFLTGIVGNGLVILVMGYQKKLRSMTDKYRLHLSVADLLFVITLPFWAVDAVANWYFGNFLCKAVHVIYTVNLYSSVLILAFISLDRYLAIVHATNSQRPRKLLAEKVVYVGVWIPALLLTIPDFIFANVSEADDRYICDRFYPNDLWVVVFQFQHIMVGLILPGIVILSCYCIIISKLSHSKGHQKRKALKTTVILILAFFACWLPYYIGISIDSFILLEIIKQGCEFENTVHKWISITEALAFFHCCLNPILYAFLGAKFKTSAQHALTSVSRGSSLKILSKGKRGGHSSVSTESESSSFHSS

Question: With “FIV envelope protein (product of the env gene of FIV clone 34TF10, Petaluma strain) (from UniProt P16090 1-856)” as the substance, how does the infectivity of replication-competent 34TF10 on CRFK.CXCR4 against CRFK cells (focal infectivity assay) read?
Answer: Its infectivity of replication-competent 34TF10 on CRFK.CXCR4 against CRFK cells (focal infectivity assay) is 8 fold.

Question: And the titer of FIV Env-enveloped CTRZLb vector on CRFK.CXCR4 cells (transducing units/ml)?
Answer: Its titer of FIV Env-enveloped CTRZLb vector on CRFK.CXCR4 cells (transducing units/ml) is 360.
